Laboratory results reported in the Human Domainome abundance scans (Beltran et al. 2025).
± gives the uncertainty stated by the source.

B1: Far upstream element-binding protein 3, residues 75 to 150; numbered along this chain, Q96I24 (parent)
chain: RTVITEEFKVPDKMVGFIIGRGGEQISRIQAESGCKIQIASESSGIPERPCVLTGTPESIEQAKRLLGQIVDRCRN

Variants of: B1
Assay: abundance fitness (aPCA) (normalised: wild type 0, dead -1); higher = more abundant; growth selection in yeast, the domain comes from the species named
Settings: Homo sapiens

Point of comparison: RTVITEEFKVPDKMVGFIIGRWGEQISRIQAESGCKIQIASESSGIPERPCVLTGTPESIEQAKRLLGQIVDRCRN [G22W], abundance fitness -0.149 ± 0.036. Against it:
- RTVITEEFKVPDKMVGFIIGRGGEQISRIQAESGCKIQIASESSGIPERPCVLTGTPESIEQAKRLLGMIVDRCRN [Q69M] — higher, -0.03 ± 0.043
- RTVITEEFMVPDKMVGFIIGRGGEQISRIQAESGCKIQIASESSGIPERPCVLTGTPESIEQAKRLLGQIVDRCRN [K9M] — higher, -0.016 ± 0.041
- RTVITEEFKVPDKMVGFIIGRGGEQESRIQAESGCKIQIASESSGIPERPCVLTGTPESIEQAKRLLGQIVDRCRN [I26E] — lower, -0.436 ± 0.037
- RTVITEEFKVPDKMVGFIIGRGGEQPSRIQAESGCKIQIASESSGIPERPCVLTGTPESIEQAKRLLGQIVDRCRN [I26P] — lower, -0.628 ± 0.045
- RTVITEEFKVPDKMVGFIIGRGGEQDSRIQAESGCKIQIASESSGIPERPCVLTGTPESIEQAKRLLGQIVDRCRN [I26D] — lower, -0.518 ± 0.052
- RTVIEEEFKVPDKMVGFIIGRGGEQISRIQAESGCKIQIASESSGIPERPCVLTGTPESIEQAKRLLGQIVDRCRN [T5E] — higher, -0.043 ± 0.04
- RTVITEEFKVPDKMVGFIIGRGGEQISRIQAESGCKIQIASESSGIPERPCVLTGTPESIEQAKRLRGQIVDRCRN [L67R] — lower, -1.01 ± 0.051
- RTVITMEFKVPDKMVGFIIGRGGEQISRIQAESGCKIQIASESSGIPERPCVLTGTPESIEQAKRLLGQIVDRCRN [E6M] — within error, -0.103 ± 0.039
- RTVITDEFKVPDKMVGFIIGRGGEQISRIQAESGCKIQIASESSGIPERPCVLTGTPESIEQAKRLLGQIVDRCRN [E6D] — within error, -0.084 ± 0.047
- RTVITEEFKVPDKMVGFIIGRGGEQISRIQAESGLKIQIASESSGIPERPCVLTGTPESIEQAKRLLGQIVDRCRN [C35L] — lower, -0.763 ± 0.046
- RTVITEEFKVPDKMVGFIIGRGGEQISRIQAESGRKIQIASESSGIPERPCVLTGTPESIEQAKRLLGQIVDRCRN [C35R] — lower, -0.732 ± 0.035
- RTVITEEFKVPDKMVGFIIGRGGEQISRIQAESGCKIQIASESSGIPERPCVLTGTPESIEQAKRLLGQITDRCRN [V71T] — higher, -0.026 ± 0.042
- RTVITEEFKVPDKMVGFIIGRGGEQISRIQAESGCKIQIASESSGIPERPCVLTGTPESIEQAKRLLGQIPDRCRN [V71P] — within error, -0.198 ± 0.043
- RTVITEEFKVPDKMVGFIIGRCGEQISRIQAESGCKIQIASESSGIPERPCVLTGTPESIEQAKRLLGQIVDRCRN [G22C] — higher, -0.057 ± 0.041
- RTVITEEFKVPDKMVGFIIGRYGEQISRIQAESGCKIQIASESSGIPERPCVLTGTPESIEQAKRLLGQIVDRCRN [G22Y] — within error, -0.161 ± 0.063
- RTVITEEFKVPDKMVGFIIGRGGEQISRIQAESGCKIQIASESSGIPERPCVLTGHPESIEQAKRLLGQIVDRCRN [T56H] — within error, -0.106 ± 0.051
- RTVITEEFKVPDKMVGFIIGRGGEQISRIQAESGCKIQIASESSGIPERPCVLTGTPESIEQAKRHLGQIVDRCRN [L66H] — within error, -0.148 ± 0.052
- RTVITEEFKVPDKMVGFIIGRGGEQISRIQAESGCKIQIASESSGIPERPCVLTGTPESIEQAKRSLGQIVDRCRN [L66S] — higher, -0.064 ± 0.033
- RTVITEEFKVPDKMVGFIIGLGGEQISRIQAESGCKIQIASESSGIPERPCVLTGTPESIEQAKRLLGQIVDRCRN [R21L] — higher, -0.057 ± 0.031
- RTVITEEFKVPDKMVGFIIGRGGEQISRIQAESGCKIQIASESSGIPERPCVLTGTMESIEQAKRLLGQIVDRCRN [P57M] — within error, -0.111 ± 0.057
- RTVITEEFKVPDKMVGFIIGRGGEQISRIQAESGCKIQIASESSGIPERPCVGTGTPESIEQAKRLLGQIVDRCRN [L53G] — lower, -0.971 ± 0.044
- RTVITEEFKVPDKMVGFIIGRGGEQISRIQAESGCKIQIASESSGIPERPCVSTGTPESIEQAKRLLGQIVDRCRN [L53S] — lower, -0.838 ± 0.065
- RTVITEEFKVCDKMVGFIIGRGGEQISRIQAESGCKIQIASESSGIPERPCVLTGTPESIEQAKRLLGQIVDRCRN [P11C] — lower, -0.239 ± 0.048
- RTVITEEFKVPDKMVGFIIGRGGEQISRIQAESGCKIQIASESSGIPERPCVLTGTPESIEQAKRLLGQIVWRCRN [D72W] — within error, -0.108 ± 0.035
- RTVITEEFKVPDKMVGFIIGRGGEQISDIQAESGCKIQIASESSGIPERPCVLTGTPESIEQAKRLLGQIVDRCRN [R28D] — within error, -0.077 ± 0.053
- RTVITEEFKVPDKMVGFIIGRGGEQISNIQAESGCKIQIASESSGIPERPCVLTGTPESIEQAKRLLGQIVDRCRN [R28N] — within error, -0.125 ± 0.069
- RTVITEEFKVPDKMVGFIIGRGGEQISPIQAESGCKIQIASESSGIPERPCVLTGTPESIEQAKRLLGQIVDRCRN [R28P] — lower, -0.617 ± 0.052
- RTVITEEFKVPDKMVGFIIGRGGEQISRIQAESGCKIQIASESSGMPERPCVLTGTPESIEQAKRLLGQIVDRCRN [I46M] — higher, -0.053 ± 0.04
- RTVITEEFKVPDKMVGDIIGRGGEQISRIQAESGCKIQIASESSGIPERPCVLTGTPESIEQAKRLLGQIVDRCRN [F17D] — higher, 0.081 ± 0.05
- RTVITEEFKVPDKMVGYIIGRGGEQISRIQAESGCKIQIASESSGIPERPCVLTGTPESIEQAKRLLGQIVDRCRN [F17Y] — higher, -0.019 ± 0.065
- RTVITEEFKVPDKMVGLIIGRGGEQISRIQAESGCKIQIASESSGIPERPCVLTGTPESIEQAKRLLGQIVDRCRN [F17L] — higher, -0.065 ± 0.034
- RTVITEEFKVPDKMVGFIIGRGGEQISRIQAESGCKIVIASESSGIPERPCVLTGTPESIEQAKRLLGQIVDRCRN [Q38V] — higher, -0.007 ± 0.028
- RTVITEEFKVPDKMVGFIIGRGGEQISRIQAESGCKIQIASECSGIPERPCVLTGTPESIEQAKRLLGQIVDRCRN [S43C] — higher, 0.017 ± 0.053
- RTVITEEFKVPDKMVGFIIGRGGEQISRYQAESGCKIQIASESSGIPERPCVLTGTPESIEQAKRLLGQIVDRCRN [I29Y] — lower, -0.579 ± 0.071
- RTVITEEFKVPDKMVGFIIGRGGEQISRIQAESGCKIQIASESNGIPERPCVLTGTPESIEQAKRLLGQIVDRCRN [S44N] — higher, -0.053 ± 0.054
